According to the RNAGym collection of RNA variant scans (doi:10.1101/gr.219683.116):

B1: mRNA-splicing (parent)
chain: AGUUGCUGCUGGGAGCUCCAGCACAGUGAAAUGGACAGAAGGGCAGAGCAA

Variants of: B1
Assay: exon inclusion enrichment index; higher = more inclusion; WT1 exon 5 minigene, HEK293

| Variant | exon inclusion enrichment index |
| --- | --- |
| A47U | 0.105 |
| A47U G48A | 0.123 |
| A47U G48C | 0.106 |
| A47U G48U | 0.125 |
| G48A | 0.46 |
| G48C | 0.292 |
| G48U | 0.288 |
| A47G G48C | 0.0501 |
| A47G G48U | 0.00564 |
